Measured values taken from publication PMC5018964, “Visualization and ligand-induced modulation of dopamine receptor dimerization at the single molecule level” (Scientific Reports, 2016).

Experiments:
Details in all cases: remark: other sources report otherwise
[1] = target: T1, N-terminally SNAP-tagged human dopamine D2L receptor (human), P14416; experiment: single-molecule TIRF microscopy (apparent lifetime of particle colocalization); Alexa546-labelled SNAP constructs on living CHO cells, ligand-free; time from the beginning of tracking to a one-step intensity change, 120 trajectories, one-phase exponential decay; apparent
T1 chain: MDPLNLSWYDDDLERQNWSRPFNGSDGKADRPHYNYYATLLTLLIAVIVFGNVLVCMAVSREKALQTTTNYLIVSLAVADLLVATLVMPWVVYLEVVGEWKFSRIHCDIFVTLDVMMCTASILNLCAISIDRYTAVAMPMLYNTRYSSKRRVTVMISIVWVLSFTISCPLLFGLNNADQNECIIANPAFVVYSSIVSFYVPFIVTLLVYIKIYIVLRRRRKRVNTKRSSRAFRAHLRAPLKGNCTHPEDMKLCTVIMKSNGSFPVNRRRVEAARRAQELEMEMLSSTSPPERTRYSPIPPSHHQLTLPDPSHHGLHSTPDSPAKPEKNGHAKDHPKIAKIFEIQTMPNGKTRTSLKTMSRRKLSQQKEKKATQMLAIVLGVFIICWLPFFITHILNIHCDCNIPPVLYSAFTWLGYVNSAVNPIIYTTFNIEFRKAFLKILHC

[2] = target: T1, N-terminally SNAP-tagged human dopamine …; experiment: single-molecule TIRF microscopy (apparent lifetime of particle colocalization); Alexa546-labelled SNAP-D2L on living CHO cells with the bivalent ligand 2a; 120 trajectories, one-phase exponential decay; apparent
[3] = target: T1, N-terminally SNAP-tagged human dopamine …; experiment: single-molecule TIRF microscopy (intensity distribution of fluorescent spots); Alexa546-BG-labelled SNAP-D2L on living CHO cells, incubated 1 h with the unsymmetrical control ligands 3a or 3b (one pharmacophore, one non-binding motif) at 10-fold Ki
[4] = target: T1, N-terminally SNAP-tagged human dopamine …; experiment: single-molecule TIRF microscopy (intensity distribution of fluorescent spots); living stably transfected CHO cells, SNAP-tag labelled with 1 uM Alexa546-BG, ligand-free; spots of the first 10 frames fitted with a mixed Gaussian model; room temperature (24.0 ± 0.3 °C), imaging buffer pH 7.4; SNAP-D2L at 0.67 ± 0.03 spots um^-2
[5] = target: T1, N-terminally SNAP-tagged human dopamine …; experiment: single-molecule TIRF microscopy (lifetime of transient dimers from intensity trajectories); Alexa546-labelled SNAP-D2L on living CHO cells, ligand-free; 120 dimers whose trajectories show intensity doubling and return; one-phase exponential fit
[6] = target: T1, N-terminally SNAP-tagged human dopamine …; experiment: single-molecule TIRF microscopy (intensity distribution of fluorescent spots); Alexa546-BG-labelled SNAP-D2L on living CHO cells, incubated 1 h with the bivalent antagonists 2a or 2b at 10-fold Ki
[7] = target: T1, N-terminally SNAP-tagged human dopamine …; experiment: single-molecule TIRF microscopy (intensity distribution of fluorescent spots); receptors on living CHO cells labelled 1 h at 37 °C with a fluorescent (Cy3B) antagonist (1c, 4a or 4b) at 10-fold Ki; spots fitted with a mixed Gaussian model
[8] = target: T1, N-terminally SNAP-tagged human dopamine …; experiment: single-molecule TIRF microscopy (apparent lifetime of particle colocalization); Alexa546-labelled SNAP-D2L on living CHO cells with the monovalent ligand 1a; 120 trajectories, one-phase exponential decay; apparent

apparent colocalization lifetime (tau) [1]: 0.46 s | apparent colocalization lifetime (tau), with bivalent ligand 2a [2]: 1.16 s | percent of fluorescent spots that are dimers, with control ligand 3a [3]: 33% | percent of fluorescent spots that are dimers, with control ligand 3b [3]: 34% | percent of fluorescent spots that are monomers, with control ligand 3a [3]: 67% | percent of fluorescent spots that are monomers, with control ligand 3b [3]: 66% | percent of fluorescent spots that are dimers [4]: 30% | percent of fluorescent spots that are monomers [4]: 70% | stoichiometry N [4]: 2 | half-life (t1/2) of the transient dimer [5]: 0.35 s | lifetime of the transient dimer [5]: 0.5 s | percent of fluorescent spots that are dimers, with bivalent antagonist 2a [6]: 66% | percent of fluorescent spots that are dimers, with bivalent antagonist 2b [6]: 58% | percent of fluorescent spots that are dimers, labelled with antagonist 1c [7]: 26% | percent of fluorescent spots that are monomers, labelled with antagonist 1c [7]: 74% | apparent colocalization lifetime (tau), with monovalent ligand 1a [8]: 0.42 s
B1: N-terminally SNAP-tagged human dopamine D2L receptor, P14416 1-443 (receptor)
chain: T1 chain
modifications: here or on the partner: Alexa546 covalently on the SNAP-tag through benzylguanine (Alexa546-BG) in the SNAP-labelling experiments; Alexa546 covalently on the SNAP-tag through benzylguanine (Alexa546-BG) in the SNAP-labelling experiments
